Test results as given in patent US20160168212A1 (RAMOT AT TEL AVIV UNIVERSITY, published 2016).

Target: α-synuclein (recombinant, monomeric fraction) (UniProt P37840 1-140)
Assay: fluorescence anisotropy; α-syn monomers titrated into the Trp-containing peptide
Experimental: The solution was immediately mixed with α-syn monomer stock solution to varying final concentrations. The peptide polarization measurements were carried out using an ISS K2 fluorometer. The solutions were excited at 280 nm and emission was monitored at 350 nm. For each single point, at least five measurements were collected and their average values were used for the calculation. All experiments were performed using ultra pure water.

Kd: ~1 µM
B1: β-syn 36 in which tyrosine was substituted with tryptophan (peptide)
peptide: GVLWVGSKTR
notes: also called β-syn 36 containing Tryptophan instead of Tyrosine
